# Tested on: HEK293 cells
# Format: cell-based, human
# Details: luminescence from secreted Gluc in supernatant 24 hours after transfection of HEK293 cells; circular RNA encoding Gluc with the named IRES (UTR truncated to 675 nt)
row,Molecule,Expression
1,"Porcine pestivirus isolate Bungowannah (nucleic acid, listed as Pestivirus sp.) DNA: TACGCGGGGTATAACGACAGTAGTTCAAGTGTCGTTATGCATCATTGGCCATAACAAATTATCTAATTTGGAATAGGGACCTGCGACCTGTACGAAGGCCGAGCGTCGGTAGCCATTCCGACTAGTAGGACTAGTACAAATAGGTCAACTGGTTGAGCAGGTGAGTGTGCTGCAGCGGCTAAGCGGTGAGTACACCGTATTCGTCAACAGGTGCTACTGGAAAGGATCACCCACTAGCGATGCCTGTGTGGACGAGGACATGTCCAAGCCAATGTTATCAGTAGCGGGGGTCGTTACTGAGAAAGCTGCCCAGAATGGGTAGTTGCACATACAGTCTGATAGGATGCCGGCGGATGCCCTGTATTTTGACCAGTATAAATATTATCCGTTGTAAAGCAT",1.10E+07
2,"Human pegivirus isolate JD2B1I (nucleic acid, listed as Pegivirus sp.) DNA: TCAGGGTTGGTAGGTCGTAAATCCCGGTCACCTTGGTAGCCACTATAGGTGGGTCTTAAGAGAAGGTTAAGATTCCTCTTGTGCCTGCGGCGAGACCGCGCACGGTCCACAGGTGTTGGCCCTACCGGTGGGAATAAGGGCCCGACGTCAGGCTCGTCGTTAAACCGAGCCCGTCACCCACCTGGGCAAACGACGCCCACGTACGGTCCACGTCGCCCTTCA",6.85E+05
3,"Pegivirus K (nucleic acid, Pegivirus K) DNA: AGAATGGTGTGATCCGTCGCCGCTCCAGCGGAAAGCGGGCGGGATCTAGTGGTTAGGGTTGTTCGCGTAAATCCCACACTAGTGGTACGCTCGTATAACGTGGGAGCAGCCGGTGGGGTCGACCCCCCACCTGGCGGCTGCTGAGCACCGGACGAAGCGCGGGGGGTGAACGCTAACCCGCGGCCCGGGCTGCCAACGTTAGGCACGTCTTGGCTGGAAGACGTTAAACACAGGGCCCCCCCTCAACCCTGATCCGAGGCCAGAGACCAAGGTACGCCGCCCTTTTAAAGGCGTTACTCGTCCAATAGGATCTCTCCGGCGGGTTGTCAAACCTTGCTGGCCCTGGTGATGGTTACGGGAGGGGGTGGGGCGGGGAGTAGAAGCCCCGCCCGGCATGGGGGTACCAAGCTCGGCACGCCCAGCACGCGTGGCGTAGGGGAAAAATCCTTCGGGTGACCCCTGGTACCATAAAGTAATTAACATGAGCATGCCGCTAGGGTGTGCTTTTTCTTCCTTCCTTGGGAAGGCGGTGGCACC",8.07E+04
4,"Pestivirus giraffe-1 (nucleic acid, listed as Pestivirus sp.) DNA: GTATACGAGTTTAGCTCAATCCTCGTATACAATATTGGGCGTCACCAAATATAGATTTGGCATAGGCAACACCCCGATGCGAAGGCCGAAAAGGGCTAACCATGCCCTTAGTAGGACTAGCAAAAAATCGGGGACTAGCCCAGGTGGTGAGCTTCCTGGATGACCGAAGCCCTGAGTACAGGGCAGTCGTCAACAGTTCAACACGCAGAATAGGTTTGCGTCTTGATATGCTGTGTGGACGAGGGCATGCCCACGGTACATCTTAACCTATCCGGGGGTCGGATAGGCGAAAGTCCAGTATTGGACTGGGAGTACAGCCTGATAGGGTGTTGCAGAGACCCATCTGATAGGCTAGTATAAAAAACTCTGCTGTACATGGCAC",4.72E+05
5,"Pegivirus I (nucleic acid, Pegivirus I) DNA: AGAATGGTCTAAGTGGTTGCCACCGTGGTCCGAAGGGGAGGAGGACCTACGCTGCCAGGGTTGGCAGGTCGTAAATCCCGGGTGTAGGAGATCCCTCCTTGTTAGGACTGCTGGTAGCTGGGGGGTCGGTGACCCCCTGGGCAACCGCCAAACCCGGACGACCGGGTGGCGGCTCCATGTTGGCACGGTCCACAGGTGTGAACCCTACCGGTGTGAATAAGGGTTGGTGGTTGCGGTCCACCTTAAACGTAGTATGCATTGGGCTTGGTAAAACACCGCTCGTAGTACGGAACGCCGCCTTTAAAGACACAGTAGGCGTAGCCGGCGGGTTGACAATCCATACGGGGGGTGGGGTGTGGTCATGGATCTGTCCACACCACCTTCATGCGGCCCTCTAAGCAAGCCATACCGGGGGGAGGCGCGCGGCACCGCACTGCCGGGCAAGGGGAAGAACCTTCGGGTGACCCCCCCCCAACCACCGTCCGATCAATGCTAATGTTGCGTTTAGGCGTGACACCGGCACA",8.02E+04
6,"Human pegivirus isolate JD2B8C (nucleic acid, listed as Pegivirus sp.) DNA: TGGTCACCTTGGTAGCCACTATAGGTGGGTCTTAAGAGAAGGTTAAGATTCCTCTTGTGCCTGCGGCGAGACCGCGCACGGTCCACAGGTGTTGGCCCTACCGGTGTGAATAAGGGCCCGACGTCAGGCTCGTCGTTAAACCGAGCCCATTTCCCGCCTGGGCAAACGACGCCCACGTACGGTCCACGTCGCCCTTTTAATGTCTCTCTTGACCAATAGGTTCATCCGGCGAGTTGACAAGGACCAGTGGGGGCCGGGGGTCACAGGGATGGACCCTGGGCCCTGCCCTTCCCGGCGGGGTGGGGAAAGCATGGGGCCACCCAGCTCCGCGGCGGCCTGCAGCCGGGGTAGCCCAAGAACCTTCGGGTGAGGGCGGGTGGCATTTTTCTTCCTATACCGATC",5.36E+05
7,"Simian pegivirus (nucleic acid, listed as Pegivirus sp.) DNA: GGGGAATCTCACCCCCCGTCCGGTTCCGGAAGAATCGGAAACCGACACCCTGACCAATCATTCTTGATCATAGAGTGGATGTTAGTGAAAGCCAGACGAAAGCCGGCGGATGGGTGGTGACAGGGTTGGTAGGTCGTAAATCCCGGCCACCCTGGTACCCGGTATAAGTTGGGCGGAAGCTGACTGAAGCTCCGTGCTCTTTTCTGTGCGTTCTTGGTGCACGGTCCACAGGTGACGCCTATACCGGTGTGAATAATAGGCCGACTCGAGCGGAGTCGTTAAACTGAGAACCTCCATACGGATGGCAACTTGGCTTGCGTACGGGGACGCCGCTAAAGTCACAGTGGGTTAAGTCCGGCGGGTTGACAACCCCAGCAAGGCGAGGGGGTCCTATTGTTGGACTCTGCCAGTTCCCGGTGGAGGTAGGCATGGGGTGGCCCAGCTCCGCGGCGCGCTACAGCCGGGGTAGCCCAAAATCCGAAAGGTGAGGGCGGGCCACATGTCCGAAATTTAGTCAAGC",8.56E+04
8,"Kobuvirus SZAL6: ""Kobuvirus SZAL6 IRES"", one of the selected IRES sequences, SEQ ID NOs: 348-389 (nucleic acid, listed as Kobuvirus sp.) DNA: TTTCACACCCTCTTTTCCGGTGGTCCGGACCCAGACCACCGTTACTCCATTCAGCTACTTCGGTACCTGTTCGGAGGAATTAAACGGGCACCCTACCCAAGGGTTACATGGGACCATATTCCTCCTCCCCTGTAACTTTAAGTTTTGTGCCCGTATTCTTGACTCCAGGCGGATGTTGTGTCGCCCGTCCTGTGAACAAACAGCTAGACACTTTCCTCCCCTCCCTCTGGGCTGCTCCGGCAGTCCACTCCCTCCCCCCAGCGTAACATGCCCCGCTGGAGTGATGCACCTGGAAGTCGTGGACGTGGGTTAGTAACTTCGGTGAAAACCCACTATAATGACAACTGGTTGACCCCCACACTCAAAGGACTCGAGTCTTTCTCCCTTAAGGCTAGCCCGGCCACATGAATTTGCAGCTGGCAACTAGTGAGTCCACCATGTCCCGCAACCTCGGCTGCGGAGTGCTGTTCCCCAAGCGTATGCCTTCCTTCTGTAAGAGTGCGCCTGGCAAGCACATCTGAGAAGTCGTTCCGCTGCGTCGTGCCAACCTGGCGACAGGTGACCCAGTGTGCGTAGACTTCTTCCGGATTCGTCCGGCTCTTCTCTAGGAAACATGCGTGTAAGGTTCATGTGCCAAAGCCCTGCGCGCGGTGTTCTTCTACTGCCCTAGGAATGTGCCGCAGGTACCCCTACTTCGGTAGGGATCTGAGCGGTAGCTAATTGTCTACGGGTAGTTTCATTTCCATCTTCTCTTCAGGTCGACATC",98850000
9,"Porcine pestivirus 1 (nucleic acid, listed as Pestivirus sp., chemistry not fully specified; the letters are possibly those of the target site) DNA: GCAGATATCGGTGGTGGACCTGGGGGTTGGGCTCACCGTGCCCCTTCATGGGGTAGACCTCACTGCTTGATAGAGTGCCGGCGGATGCCTCAGGTAAGAGTATAAAATCCGTTGTTCACTAAC",9.46E+04
10,"Pronghorn antelope pestivirus (nucleic acid, listed as Pestivirus sp.) DNA: GTATACGCAGTTAGTTCATCCTGTGTATACAGATTGGAGACTCTAAAAACAACGATTCGGAATAGGGGCCCGCGGCGAAGACCGAAGACAGGCTAACCATGCCGTTAGTAGGGCTAGCACCAAAACGCGGGAACTAGACACTTAGGAGAGTGGTCTGGCTACTCTAAGAGGTGAGTACACCTTAACCGTCAAGGGTTCTACTCCTCAGTTGAGGACTAGAGATGCCCTGTGGACGGGGGCATGCCCAAGAGTTAGCTTAGCCGGGGCGGGGGTTGTTCCGGTGAAAGTAGCAATATTGACCACACTGCCTGATAGGGCGGAGCAGGCCCCCTAGGTAGTCTAGTATAAAATGTCTGCTGTACATGGCAC",1.35E+06
11,Sakobuvirus A FFUP1 (1x mut) (nucleic acid) DNA: TCACGCGCTTTTCCGGTGGTCACCCACCGTTAGGGAGCGCCAGCGTTCGCGCTTCCGCTACCAGGTGACACACTCCTTTCCCCTCCCCCATTCCCGTTCCCATCCTCTGGACTGGTTTCTCCTCACGATTGACCAGCAGCTGGGAGCTGTTACCAGACGTTGGACAGTAAGTCCCGGATGCACTATAGGGCTGGTGGCTAGTGCTTGGTAAGCACTCAACGCCATACCTAATGTGTACCTCGGCTTGCCCTCCTGGTCGTGGTGACCGGCTGTTTCTCTTCCCTTGGCTCCAGACGGGCTGGTGTCCTACCACCACCGTTGCATGCAGACCTCCCCCTGCGCACTCGAACGCCCTGTCCCAGCAGGGTTAGTATGTGCTGTGCAGATCTGCATGTGACACCCCATCCACTGGTAGAGCAGGAAGTTGCCCTAGCTAACGCGGCAAGTATTACTTTCCGCTACACGTCCTTGAGATTCCTCGGACCTCTGGAACTAGGGTGACTGTGGGCTTGGGAAAACCCACCTTGGTCCTGTACTGCCTGATAGGGTCGCGGCTGGCCGACCAGTGGATGTAGCCAGTTGTTTTGGGAT,8.82E+06
